Test results published in paper PMC4027194.

Tested on: G5 1297-1412 (RBS1)
Assay: EMSA

FMDV IRES domain 5 gave a Kd of 20 µM.
